Data on eleven molecules can be found in US20230129258A1 (Bicycle, published 2023).

“And” between values parts separate entries of the source, which are not always exact repeats. Equal entries are not always repeated. Starred links: 1 amine or outer side, 2 acyl side, 3 side chain; linkers in the order of their positions; H or OH if unused. Positions of bridges follow the written chain, without caps; N, C: chain ends. Non-standard residues stand in square brackets, D forms with d. Primed or numbered codes have the meaning given here. Chains are numbered I, II in the order given. No end group written: not given here. *: point of attachment. dLys(PYA)″ = D-lysine N6-(4-pentynoyl) (D-Lys(PYA)), C#CCCC(=O)NCCCC[C@@H](N[*:1])C(=O)[*:2]; TATA = O=C(CC[*:1])N1CN(C(=O)CC[*:2])CN(C(=O)CC[*:3])C1; γGlu = O=C(O)[C@H](CCC(=O)[*:2])N[*:1]; 1Nal = N[C@@H](Cc1cccc2ccccc12)C(=O)O; d1Nal = N[C@H](Cc1cccc2ccccc12)C(=O)O; Palmitoyl = CCCCCCCCCCCCCCCC(=O)*; Hyp = O=C(O)[C@@H]1C[C@@H](O)CN1; hArg = N=C(N)NCCCC[C@H](N)C(=O)O; tBuAla = CC(C)(C)C[C@H](N)C(=O)O; dK(PYA) = not defined here; NMeA = CN[C@@H](C)C(=O)O; Nle = CCCC[C@H](N)C(=O)O; Pent4ynoyl = C#CCCC(=O)*; dNMeA = CN[C@H](C)C(=O)O Where only a bound is given, the exact number is not on record here.

The target of assay [1] is T1, OX40 on Jurkat reporter cells (Promega CS197704) (UniProt P43489 29-277).
T1 sequence (looked up): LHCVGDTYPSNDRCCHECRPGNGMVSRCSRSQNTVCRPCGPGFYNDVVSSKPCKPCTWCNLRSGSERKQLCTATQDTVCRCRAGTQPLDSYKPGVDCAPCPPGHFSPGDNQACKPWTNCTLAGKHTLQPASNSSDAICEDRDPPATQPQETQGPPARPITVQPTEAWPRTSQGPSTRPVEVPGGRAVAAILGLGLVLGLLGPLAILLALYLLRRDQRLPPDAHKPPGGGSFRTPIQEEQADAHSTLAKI
The assay is described as follows: cell-based or functional assay.

The target in assay [2] is T2, CD137 on Jurkat reporter cells (Promega kit CS196005) (UniProt Q07011 24-255, limits assumed). The assay is described as follows: cell-based or functional assay.
T2 sequence (Q07011 24-255 limits assumed): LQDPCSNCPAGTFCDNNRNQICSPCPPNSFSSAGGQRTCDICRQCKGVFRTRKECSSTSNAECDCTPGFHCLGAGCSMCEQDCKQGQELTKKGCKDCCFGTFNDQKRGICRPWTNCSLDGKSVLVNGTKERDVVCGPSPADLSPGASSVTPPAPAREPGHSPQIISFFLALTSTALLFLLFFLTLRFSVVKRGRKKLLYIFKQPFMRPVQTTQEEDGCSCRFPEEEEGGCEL
For assay [3], the target named is T2, CD137 on Jurkat reporter cells (Promega …). As to the kind of experiment: cell-based or functional assay. The source holds these as a separate data set.
For assay [4] the target is unchanged. As to the kind of experiment: cell-based or functional assay. The source holds these as a separate data set.
Assay [5] deals with T3, human EphA2 protein (human, UniProt P29317 25-534, limits assumed, biotinylated).
T3 construct: Construct not described; also called EphA2 (human)
T3 sequence (P29317 25-534 limits assumed): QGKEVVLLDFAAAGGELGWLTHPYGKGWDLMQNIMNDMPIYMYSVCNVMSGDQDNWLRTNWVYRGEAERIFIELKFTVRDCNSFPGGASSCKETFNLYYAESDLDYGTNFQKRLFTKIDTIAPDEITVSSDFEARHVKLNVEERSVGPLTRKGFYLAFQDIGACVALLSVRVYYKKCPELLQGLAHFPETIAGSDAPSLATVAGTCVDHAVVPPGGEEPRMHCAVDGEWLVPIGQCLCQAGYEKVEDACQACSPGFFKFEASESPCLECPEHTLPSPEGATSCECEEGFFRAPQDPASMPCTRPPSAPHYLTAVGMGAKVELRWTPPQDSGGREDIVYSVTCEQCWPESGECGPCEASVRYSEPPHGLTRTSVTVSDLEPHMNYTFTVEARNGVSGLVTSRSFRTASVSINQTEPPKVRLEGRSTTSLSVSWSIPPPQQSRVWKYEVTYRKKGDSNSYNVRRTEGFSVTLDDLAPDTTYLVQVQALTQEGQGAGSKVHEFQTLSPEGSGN
The assay is described as follows: SPR (Biacore T200), biotinylated EphA2 captured on streptavidin chip, 25° C. (In general: In SPR one partner is held on a chip, and binding of the other changes the refractive index at the surface.)

For assay [6], the target named is T3, human EphA2 protein. As to the kind of experiment: SPR (Biacore), biotinylated human EphA2 captured on a streptavidin chip, BCY13272 as analyte, 1:1 fit.
Assay [7] addresses T4, human CD137 extracellular domain (human, UniProt Q07011 24-186, biotinylated where captured on the streptavidin chip).
T4 construct: extracellular domain; Section 17 says only 'Recombinant human CD137 (R&D systems)'; also called CD137 (human); Recombinant human CD137 (R&D systems)
As to the kind of experiment: SPR (Biacore), biotinylated human CD137 captured on a streptavidin chip, BCY13272 as analyte, 1:1 fit; avidity from two CD137 bicycles.

Assay [8] addresses T4, human CD137 extracellular domain. As to the kind of experiment: SPR (Biacore), biotinylated human CD137 captured on a streptavidin chip, BCY13272 as analyte, 1:1 fit; the text says the reported KD may be an overestimation (avidity).
Assay [9] has the same target. As to the kind of experiment: SPR (Biacore), biotinylated human CD137 captured on a streptavidin chip, BCY13272 as analyte, 1:1 fit; the text calls the off rate very slow (avidity from two CD137 bicycles).
Assay [10] has as its target T2, CD137 on Jurkat reporter cells (Promega …). The assay is described as follows: cell-based or functional assay. The source holds these as a separate data set.

T4 sequence (Q07011 24-186): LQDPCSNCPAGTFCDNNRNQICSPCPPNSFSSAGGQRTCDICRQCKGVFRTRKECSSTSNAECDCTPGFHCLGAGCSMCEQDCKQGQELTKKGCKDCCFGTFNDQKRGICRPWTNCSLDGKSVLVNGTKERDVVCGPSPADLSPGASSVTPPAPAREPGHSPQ

B1: BCY12967 (peptide)
peptide 1: CP[1Nal]DCM[hArg]DWSTP[Hyp]WC
peptide 2: ACLYSPCWHPLNDCAK(Pent4ynoyl)
modifications: linker I:1-I:5-I:15 via TATA; linker II:2-II:7-II:14 via TATA (inferred); not fully specified (some residues); also: chain 1 N-terminus and chain 2 C-terminal Lys(PYA) joined by N-(acid-PEG3)-N-bis(PEG3-azide) linker
Consider B1, for which, in assay [1], the “EC50 (nM), Promega OX40 cell-activity assay in co-culture with tumor cells” value was determined as 0.83 nM.

B2: BCY13583 (peptide)
peptide 1: CP[1Nal][dD]CM[hArg]DWSTP[Hyp]WC
peptide 2: Ac-C[tBuAla]PE[dK(PYA)]PYCFADPY[Nle]CA
peptide 3: Ac-C[tBuAla]PE[dK(PYA)]PYCFADPY[Nle]CK
modifications: linker I:1-I:5-I:15 via TATA; linker II:1-II:8-II:15, III:1-III:8-III:15 via TATA (inferred); reading uncertain; also: Alexa Fluor 488 label, site not given here, linker at chain B 5 at chain C 5 to a chain's N-terminus via N-(acid-PEG3)-N-bis(PEG3-azide)
For the molecule B2, in [2], the “Arithmetic mean EC50 (nM), HT1376 co-culture” value stood at 1.7 nM and the “Arithmetic mean EC50 (nM), MDA-MB-468 co-culture” value came out at 0.84 nM. Further, in [3], the “EC50 (nM), HT1376 co-culture” value is 1.7 nM and the “Emax (fold induction over background), HT1376” value worked out at 63 fold over background.

B3: heterotandem bicyclic peptide complex BCY13272 (peptide)
peptide 1: A[hArg]DC[Hyp]LVNPLCLEP[d1Nal]WTC
peptide 2: Ac-C[tBuAla]PE[dLys(PYA)″]PYCFADPY[Nle]CA
modifications: linker I:4-I:11-I:18, II:1-II:8-II:15 via TATA; not fully specified (bridges); also: 1:2 complex: BCY13118 + 2x BCY8928
notes: also called EphA2/CD137 heterotandem
In the case of B3, in assay [4], the “EC50 (nM), A549 co-culture” value is 0.147 nM and 0.107 nM and 0.132 nM; the “Geo mean EC50/cell line, A549” value worked out at 0.127 nM; the “Geo mean EC50/cell line, HT-29” value was determined as 0.279 nM; the “Geo mean EC50/cell line, PC-3” value came to 0.117 nM. In assay [5], this molecule had a Kd of 2 nM. In assay [6], the off-rate constant (koff) stood at 0.00102 s⁻¹ and the kon was found to be 502000 M⁻¹ s⁻¹. The same molecule gave a kon in [7] of 302000 M⁻¹ s⁻¹. The Kd in assay [8] is not above 0.0331 nM. In assay [9], this molecule had a koff not above 1e-05 s⁻¹.

B4: BCY12589 (peptide)
peptide 1: {Palmitoyl-γGlu-γGlu}-CP[1Nal]KCM[hArg]DWSTP[Hyp]WC
peptide 2: Ac-C[tBuAla]PE[dK](Pent4ynoyl)PYCFADPY[Nle]CA
modifications: linker I:1-I:5-I:15, II:1-II:8-II:15 via TATA; not fully specified; also: chain 2 present twice on linker, Nectin-4:CD137 1:2, linker at B5 via N-(acid-PEG3)-N-bis(PEG3-azide), other end not in the chain
As for B4, in assay [3], the “EC50 (nM), HT1376 co-culture” value turned out to be 0.44 nM and the “Emax (fold induction over background), HT1376” value turned out to be 79 fold over background.

B5: BCY11027 (peptide)
peptide 1: CPXDCMXDWSTPXWC
peptide 2: CXPEXPYCFADPYXCA
modifications: not fully specified; BCY8928: Ac-(SEQ ID NO: 11)-A; TATA; linker at dLys(PYA)4; BCY11015: [PYA]-(SEQ ID NO: 1); TATA; linker at N-term PYA
For B5, in assay [3], the “EC50 (nM), HT1376 co-culture” value is 0.18 nM.

B6: BCY11022 (peptide)
peptide 1: CPXDCMXDWSTPXWC
peptide 2: CXPEXPYCFADPYXCA
modifications: not fully specified; BCY8928: Ac-(SEQ ID NO: 11)-A; TATA; linker at dLys(PYA)4; BCY11016: [PYA]-[B-Ala]-(SEQ ID NO: 1); TATA; linker at N-term PYA
With B6, in [3], the “EC50 (nM), HT1376 co-culture” value amounted to 0.2 nM and the “Emax (fold induction over background), HT1376” value was 66 fold over background.

B7: BCY11780 (peptide)
peptide 1: SDKCSAGWLTMCQXLHLCPSH
peptide 2: CXPEXPYCFADPYXCA
modifications: BCY8928: Ac-(SEQ ID NO: 11)-A; TATA; linker at dLys4; BCY10861: Ac-SDK-(SEQ ID NO: 53)-PSH; TATA; linker at Lys(PYA)9
With B7, in assay [10], the “EC50 (nM), RKO co-culture” value amounted to 1.9 nM and the “Fold Induction over background, RKO co-culture” value came to 13 fold.

B8: BCY12760 (peptide)
peptide 1: CP[1Nal]DCM[hArg]DWSTP[Hyp]WC
peptide 2: Ac-C[tBuAla]PE[dK](Pent4ynoyl)PYCFAD[NMeA]Y[Nle]C
modifications: linker I:1-I:5-I:15, II:1-II:8-II:15 via TATA; not fully specified (some residues, bridges); also: chain 1 N-terminus and chain 2 dLys(PYA)4 joined by N-(acid-PEG3)-N-bis(PEG3-azide) linker
Turning to B8, in assay [3], the “EC50 (nM), HT1376 co-culture” value was 1.8 nM and the “Emax (fold induction over background), HT1376” value was found to be 76 fold over background.

B9: BCY12487 (peptide)
peptide 1: CP[1Nal]DCM[hArg]DWSTP[Hyp]WC
peptide 2: Ac-C[tBuAla]PE[dK](Pent4ynoyl)PYCFAEPY[Nle]C
modifications: linker I:1-I:5-I:15, II:1-II:8-II:15 via TATA; not fully specified (some residues, bridges); also: chain 1 N-terminus and chain 2 dLys(PYA)4 joined by N-(acid-PEG3)-N-bis(PEG3-azide) linker
For the molecule B9, in assay [3], the “EC50 (nM), HT1376 co-culture” value stood at 13 nM and the “Emax (fold induction over background), HT1376” value came to 12 fold over background.

B10: BCY12761 (peptide)
peptide 1: CP[1Nal]DCM[hArg]DWSTP[Hyp]WC
peptide 2: Ac-C[tBuAla]PE[dK](Pent4ynoyl)PYCFAD[dNMeA]Y[Nle]C
modifications: linker I:1-I:5-I:15, II:1-II:8-II:15 via TATA; not fully specified (some residues, bridges); also: chain 1 N-terminus and chain 2 dLys(PYA)4 joined by N-(acid-PEG3)-N-bis(PEG3-azide) linker
With B10, in assay [3], the “EC50 (nM), HT1376 co-culture” value was 0.37 nM and the “Emax (fold induction over background), HT1376” value turned out to be 76 fold over background.

B11: BCY12490 (peptide)
peptide 1: CPXKCMXDWSTPXWC
peptide 2: CXPEXPYCFADPYXCA
modifications: BCY8928: Ac-(SEQ ID NO: 11)-A; TATA; linker at dLys(PYA)4; BCY12024: Ac-(SEQ ID NO: 14); TATA; linker at dLys3
In the case of B11, in assay [3], the “EC50 (nM), HT1376 co-culture” value stood at 0.23 nM and the “Emax (fold induction over background), HT1376” value is 70 fold over background.

One may read the koff as a measure of how fast the partners let go of each other. High values mean fast dissociation, low ones slow dissociation. The kon is a measure of how fast the partners come together.
